Assay [1] concerns the target cell surface Env of HIV-1 infected (p24+) CD4+ T cells (IMCs subtype AE CM235, subtype B BaL, subtype C 1086.C, as a group). Put plainly: flow cytometry, negative control staining of p24+ IMC-infected CD4+ T cells (FIG. 27). A general note: In flow cytometry, cells or beads pass a laser one at a time.
Assay [2] shares this target. Put plainly: flow cytometry, indirect staining of p24+ CD4+ T cells infected with BaL, CM235 or 1086.C IMC (FIG. 27).
Assay [3] has the same target. The assay is described as follows: flow cytometry, staining of p24+ CD4+ T cells infected with BaL, CM235 or 1086.C IMC (FIG. 27).

Turning to Palivizumab mAb (anti-RSV) (antibody), the % of HIV-1 infected (p24+) CD4+ T cells recognized in assay [1] is less than 5%.
“7B2 mAb (anti-gp41 cluster I) (antibody)” displayed a % of HIV-1 infected (p24+) CD4+ T cells recognized in assay [2] of 24 to 38%.
As for “HIV-1 × Fluorescein Bi-Specific Diabody (7B2 × 4420) (bispecific antibody)”, the % of HIV-1 infected (p24+) CD4+ T cells recognized in assay [3] lay within 66 to 78%.
With “secondary conjugated Abs (secondary fluoresceinated anti-human IgG Abs) (antibody)”, the % of HIV-1 infected (p24+) CD4+ T cells recognized in assay [1] was less than 5%.

These data come from US20180148497A1.
